# Assay results reported in article PMC10630886, “Downregulation of stromal syntenin sustains AML development” (EMBO Molecular Medicine, 2023).
# No end group written: not given here.
# T1: 6xHis-tagged GIPC1 construct (UniProt O14908 1-333)
# T1 construct: also called recombinant GIPC1; source: recombinant; prepared as described previously (PMID: 27386966)
# T1 sequence (looked up): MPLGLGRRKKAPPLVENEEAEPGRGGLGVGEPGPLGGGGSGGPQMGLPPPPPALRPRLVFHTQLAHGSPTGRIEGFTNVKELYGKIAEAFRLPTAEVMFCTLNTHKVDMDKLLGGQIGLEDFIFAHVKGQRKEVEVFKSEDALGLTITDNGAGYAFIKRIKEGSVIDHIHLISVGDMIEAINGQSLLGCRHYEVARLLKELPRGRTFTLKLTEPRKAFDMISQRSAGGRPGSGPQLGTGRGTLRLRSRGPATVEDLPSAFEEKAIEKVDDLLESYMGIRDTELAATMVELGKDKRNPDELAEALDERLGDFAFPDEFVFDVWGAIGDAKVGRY
# B1: biotinylated peptide corresponding to the last 25 amino acids of endoglin wild-type (peptide)
# peptide: SSESSSTNHSIGSTQSTPCSTSSMA
# modifications: also: biotinylated, position not given here
# notes: endoglin (CD105), last 25 C-terminal amino acids, wild type; also called endoglin cytosolic domain; immobilized peptide corresponding to the last 25 C-terminal amino acids of wild-type endoglin
# Key:
# [1] = target: biotinylated peptide corresponding to the last 25 amino acids of endoglin wild-type; experiment: SPR; BIAcore T200, 25°C; 100 RU of biotinylated endoglin peptide immobilised on a streptavidin chip; His-tagged protein perfused (0.5 to 120 μM) at 30 μl/min in 10 mM HEPES pH 7.4, 150 mM NaCl, 0.005% Tween 20; apparent KD from equilibrium responses, Langmuir isotherm
# [2] = target: T1, 6xHis-tagged GIPC1 construct; experiment: as above; conditions: both partners purified
Molecule,Kd [1],Kd [2]
6xHis-tagged syntenin construct (containing the two PDZ domains and the C-terminal domain) (domain or fragment),27.1 µM,
B1,,2.4 µM
